Measured values reported in article PMC3176816, “Characterization and Regulation of the Osmolyte Betaine Synthesizing Enzymes GSMT and SDMT from Halophilic Methanogen Methanohalophilus portucalensis” (PLoS ONE, 2011).
Each block holds one molecule with its values, some of them ahead of it.

Tests used:
[1] = target: T1, MpSDMT (Methanohalophilus portucalensis, UniProt F6KV62); assay: radiometric acid-washed charcoal methyltransferase assay; type: biochemical; settings: read-out: I50 AdoHcy
T1 construct: gene SAMN06264941_0526; full length, 278 residues, 30,690 Da calculated (38 kD on SDS-PAGE)
T1 sequence (F6KV62 1-278): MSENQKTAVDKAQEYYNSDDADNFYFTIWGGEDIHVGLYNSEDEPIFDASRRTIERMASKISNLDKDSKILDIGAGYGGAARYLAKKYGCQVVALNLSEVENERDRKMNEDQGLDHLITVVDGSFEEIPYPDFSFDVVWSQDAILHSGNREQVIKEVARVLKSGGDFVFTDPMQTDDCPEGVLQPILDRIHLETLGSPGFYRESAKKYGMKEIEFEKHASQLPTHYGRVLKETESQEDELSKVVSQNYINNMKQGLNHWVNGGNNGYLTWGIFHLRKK
Description: radiometric acid-washed charcoal methyltransferase assay on MpSDMT

[2] = target: T2, MpGSMT (Methanohalophilus portucalensis, UniProt F6KV61); assay: as above; type: biochemical
T2 construct: gene gsmt; full length, 263 residues, 29,040 Da calculated (35 kD on SDS-PAGE)
T2 sequence (F6KV61 1-263): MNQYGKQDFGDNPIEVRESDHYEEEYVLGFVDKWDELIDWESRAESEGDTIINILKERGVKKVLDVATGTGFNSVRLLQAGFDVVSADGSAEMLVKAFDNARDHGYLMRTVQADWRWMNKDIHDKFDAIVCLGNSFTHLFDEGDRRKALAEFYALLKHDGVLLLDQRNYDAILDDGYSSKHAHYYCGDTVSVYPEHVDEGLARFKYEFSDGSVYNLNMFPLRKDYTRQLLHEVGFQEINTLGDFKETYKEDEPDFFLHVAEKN
Description: radiometric acid-washed charcoal methyltransferase assay on MpGSMT

[3] = substrate: C[S+](CC[C@H](N)C(=O)O)C[C@H]1O[C@@H](n2cnc3c(N)ncnc32)[C@H](O)[C@@H]1O; assay: purified protein; settings: TES pH 7.3, 37 °C, labelled compound
[4] = target: the molecule itself; assay: AUC; sedimentation velocity, 0.70 mg/ml MpGSMT in 0.1 M TES buffer (pH 7.3) with 0 to 2.0 M KCl, 20°C, 42,000 rpm, SEDFIT 9.4c; monomer to dimer
[5] = substrate: CN(C)CC(=O)O; assay: radiometric acid-washed charcoal methyltransferase assay; type: biochemical, Methanohalophilus portucalensis; settings: DMT activity, co-substrate AdoMet, TES pH 7.3, 37 °C (text b54 prints a different Km, equal to that of the native enzyme in the table)
[6] = substrate: CNCC(=O)O; assay: as above; type: biochemical, Methanohalophilus portucalensis; settings: SMT activity, co-substrate AdoMet, TES pH 7.3, 37 °C (text b54 prints a different Km, equal to that of the native enzyme in the table)

- IC50 [1]: 150 µM
- IC50 ([2]; read-out: I50 AdoHcy): 70 µM
Molecule: Nc1ncnc2c1ncn2[C@@H]1O[C@H](CSCC[C@H](N)C(=O)O)[C@@H](O)[C@H]1O [AdoHcy]

- activity at 1 M ([2]; read-out: Relative activity (%) / Betaine / 1 M): 30%
Molecule: C[N+](C)(C)CC(=O)[O-] [betaine]

B1: Methanohalophilus portucalensis glycine sarcosine methyltransferase (recombinant MpGSMT) (enzyme, UniProt F6KV61 1-263, looked up)
chain: T2 sequence (F6KV61 1-263)
notes: glycine sarcosine methyltransferase (GSMT) of Methanohalophilus portucalensis strain FDF1T; complete Mpgsmt gene, 792 bp, 263 amino acids, GenBank HQ634197; The tag is inferred from the vector and the Ni Sepharose purification; source: E. coli BL21(DE3)RIL, pET28a, purified (Ni Sepharose 6 Fast Flow)
- Km ([3]; GMT activity, methyl acceptor glycine): 8260 µM
- stoichiometry N [4]: 2

B2: MpSDMT (Methanohalophilus portucalensis FDF-1) (protein)
chain: T1 sequence (F6KV62 1-278)
notes: full length, 278 residues, 30,690 Da calculated (38 kD on SDS-PAGE)
- Km ([3]; SMT activity, methyl acceptor sarcosine): 500 µM
- Km [5]: 660 µM
- Km [6]: 660 µM
